Reference: paper PMC11445239
Several values for one entry are separate records, joined by “and”; a condition that tells them apart may be missing. Identical values can stand only once.

Tests used:
[1] = target: activated (Caspase 11-cleaved) mGSDMD-C39A-C57A-mEGFP (mouse); experiment: single-molecule TIRF imaging with intensity-based stoichiometry analysis; preformed supported lipid bilayer (Egg PC:PI(4,5)P2 99:1 mol %) on glass incubated with 0.5, 1 or 2 nM protein (pre-cleaved WT or mutants, or full-length at 2 nM) for 1 h, washed 15 times with SLB buffer
[2] = target: activated (Caspase 11-cleaved) mGSDMD-mEGFP, mGSDMD(NTD)-mEGFP (mouse); experiment: as above
[3] = target: activated (Caspase 11-cleaved) mGSDMD-mEGFP, mGSDMD(NTD)-mEGFP (mouse); experiment: single-molecule TIRF imaging with intensity-based stoichiometry analysis; preformed supported lipid bilayer of 100% Egg PC (no PI(4,5)P2) incubated with 2 nM active mGSDMD-mEGFP for 1 h, washed
[4] = target: activated (Caspase 11-cleaved) mGSDMD-mEGFP, mGSDMD(NTD)-mEGFP (mouse); experiment: single-molecule TIRF imaging with intensity-based stoichiometry analysis; 2 nM mGSDMD-mEGFP with 20 nM Caspase 11 incubated with LUVs (Egg PC:PI(4,5)P2 99:1 mol %) for 1 h (same pattern at 5 and 2 min and after H2O2), proteoliposomes then fused into a supported lipid bilayer on glass; SLB buffer 150 mM NaCl, 10 mM Hepes pH 7.4
[5] = target: activated (Caspase 11-cleaved) mGSDMD-C192A-mEGFP (mouse); experiment: single-molecule TIRF imaging with intensity-based stoichiometry analysis; preformed supported lipid bilayer (Egg PC:PI(4,5)P2 99:1 mol %) on glass incubated with 0.5, 1 or 2 nM protein (pre-cleaved WT or mutants, or full-length at 2 nM) for 1 h, washed 15 times with SLB buffer

activated (Caspase 11-cleaved) mGSDMD-C39A-C57A-mEGFP (domain or fragment)
stoichiometry N [1]: 2 and 3 and 4

activated (Caspase 11-cleaved) mGSDMD-mEGFP, mGSDMD(NTD)-mEGFP (domain or fragment)
stoichiometry N [2]: 5 and 6 and 9 | stoichiometry N [3]: 2 | stoichiometry N [4]: 2 and 3

activated (Caspase 11-cleaved) mGSDMD-C192A-mEGFP (domain or fragment)
stoichiometry N [5]: 3 and 2
